According to the nanobody polyreactivity screen of Harvey et al. (2022):

Test: yeast display, Sf9 membrane polyspecificity reagent, FACS + sequencing; frameworks hold sequencing errors
How it was run: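 A nanobody's polyreactivity label depends on the gate it was sorted from. Yeast display cells were stained with 10% biotinylated, detergent-solubilized Sf9 membrane reagent for 1 hour at 4 °C, enriched on streptavidin microbeads and sorted by FACS. The low and high (top ~1%) gates were set on anti-HA fluorescence for expression and streptavidin fluorescence for reagent binding.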

Sequence	polyreactivity (PSR sort gate)
QVQLVESGGGLVQAGGSLRLRCAASRRTLGVYALGWYRQAPGKERELVATITAGGSITSYADSVKGRFTISRDNAKNTVYLQMNTLKPEDTAVYYCAAEQGCSVLYDSWGQGTQVTVSS	low polyreactivity
QVQLVESGGGLVQAGGSLRLRCAASVRIFRVYAMGRYSQAPGKERELVAAISSSGGSTYYADSVKGRFTMSRDNAKNTDYLQMNSLKPEDTAVYYCAAGGLHTIQRPGYYYWGQGTQVTVSS	low polyreactivity
QVQLVESGGGLVQAGGSLRLRCAPSGFIFIFNAMGWYRQAPGKERELVAAIDTSDDSTYYADSVKGRFTISRDNAKNTVYLQMNSLKPEDTAVYYCAAEELSNYEYWGQGTQVTVSS	low polyreactivity
QVQLVESGGGLVQAGGSLRLRCASSGGIFYLNAMGWYRQAPGKERELVAAITGTGGNTYYADSVKGRFTISRDNAKNTVYLQMNSLKPEDTGVYYCNVSSRRLRGLDYWGQGTQVSVSS	low polyreactivity
QVQLVESGGGLVQAGGSLRLRCASSGRNFVPYAMGGDRQAPGTEREFVAAISRSGGSTHYADSVKGRFTISRDNAKNTVYLQMNSLKPEDTAVYYCAADYDLWLWSGYYWGQGTQVTVSS	high polyreactivity
QVQLVESGGGLVQAGGSLRLRCASSGYIFTYYAMGWYRQAPGKERELVAAISWSGGRTYYADSVKGRFTISRDNAKITVYLQMNSLKPEDTAVYYCNAVDKRYPDMDYWGQGTQVTVSS	high polyreactivity
QVQLVESGGGLVQAGGSLRLRCGASGRTFSSNAMGWYRQAPGKERELVAVITRRGGSTYYADSVKGLFTISRDNAMNNVYLQMNSLKPEDTAVYYCATVAPPQRSGRRSAGEKYYYWGQGTQVTVSS	high polyreactivity
QVQLVESGGGLVQAGGSLRLRCSASGSTIKDYTMGLYRQAPGKERELVAAITDSGGSTYYADSVKGRFTISRDNAKNTVYLQMNSLTPEDTAVYFCAAAVPELYEVRYHDDYWGQGTQVTVSS	low polyreactivity
QVQLVESGGGLVQAGGSLRLRGAASGSIFSSNAKGWCRPAPGKERELVAAICRSGGDTYYADSVKGRFTISRDNAKNTVYLQMNSLKPVDTAVYYCAARNSYGGPTYEHYYWGQGTQVSVSS	high polyreactivity
QVQLVESGGGLVQAGGSLRLRSAASGIILGKYAMGWYRQAPGKERELVAAISGRGGRTYYADSVKGRFTISRDNAKNTVYLQMNSLKQEDTAVYYWWGQGTQVTVSS	low polyreactivity
QVQLVESGGGLVQAGGSLRLRSAASGYTFSIYAMGRYRQATGKERELVASISWSAGNTYYADYVKGRFTFSLDNAKNTVYLQMNSLKPEDTAVYYCAVPRRLIWYRPSSYDYWGQGTQVTVSS	low polyreactivity
QVQLVESGGGLVQAGGSLRLSCAAAGIIFILYTMGWYRKAPGKERELVATISSGGGSTFYADSVKGRFTISRDNAKNTVYLQMHRLKPEDTAVYYCAAFPVFGYSYDYWGQGTQVTVSS	low polyreactivity
QVQLVESGGGLVQAGGSLRLSCAAAGLIFRFYAMGWYRQSPGKERELVAAISSRGGSRYYADSVKGRFTISRDNAKNTVYLQMNSLKPEDTAVYYCAAAVRKMAYPHYEYGYWGQGTQVTVSS	high polyreactivity
QVQLVESGGGLVQAGGSLRLSCAAAGLTFEWYTMGWYRQAPGKERELVADISGDGSTYYADSVKGRFTISRDNAKNTVYLQMNSLKPEDTAVYYCAASFWGFAMGYWGQGTQVTVSS	high polyreactivity
QVQLVESGGGLVQAGGSLRLSCAAAGRTFFKYAMGWYRQAPGKERELVATITSSGGITYADSVKGRFTISRDNAKNTVYLQMNRLKPEDTAVYYCNARVWVTHYSELNYWVQGTQVTVSS	low polyreactivity
QVQLVESGGGLVQAGGSLRLSCAAAGSIFSYYAMGWSRPEPGKEREFVATIRRSGASTYYADSVKGRFTISRDNAKNTGYLQMNSLKPEDTAVYYCNAASARRPIYEAARGSKYDYWGQRTQVTVSS	low polyreactivity
QVQLVESGGGLVQAGGSLRLSCAAAGSIFYYNAMGWYRQAPGKERELVASIRAHGGNTYYADSVKGRFTISRDNAKNTVYLQMNSLKPEDTAVYYCAKESRYAHLYYYWGLGTQVTVSS	low polyreactivity
QVQLVESGGGLVQAGGSLRLSCAACGFTFTIYAMGWYRQAPGKERELVATISGRAGRTYYADSVKGRFTISRDNAKNTVYLQMNSLKPEDTAVYYCTAGQWRYPGLYYYWGQGTQVTVSS	high polyreactivity
QVQLVESGGGLVQAGGSLRLSCAACGNTFTYYAMGLYRQAPGKERELVASISSGVSTNYADSVKGRFTISRDNAKNTLYLHINSLKPEDTAVYYCARGWSFSTRRFQHTRYYYWGQGTQVTVSS	high polyreactivity
QVQLVESGGGLVQAGGSLRLSCAACGRIFTPNAMGWYRPAPGKERELVAAITWSGDNTYADSVKGRFTISRDNAKNTVYLQMNSLKPEDTAVYYCAAAYGYGHKNYGYWRQGTQVTVSS	low polyreactivity
QVQLVESGGGLVQAGGSLRLSCAACGRIFVYYVMGWYRQAPGKERELVAAISNSGTSTYYADSLKGRFTISRDNAKNTVYLQMNSLKPEDTAVYYCNTVGQRWLSDDDYWGQGTQVTVSS	low polyreactivity
QVQLVESGGGLVQAGGSLRLSCAACGRTFQSNAMGWYRQAPGKERELVARITRRGGITYYADSVKGRFTISRDNAKNTVYLQMNSLKPEDTAVYYCNRYLYDSYRWAALQRTGYNSWGQGTQVTVSS	high polyreactivity

Sequence	polyreactivity (PSR sort gate)
QVQLVESGGGLVQAGGSLRLSCAACGRTFRRNAMGWYREAPGKERELVAAISTSGGRTYYADSVKGRFTISRDNAKNTVYLQMNSLKPEDTAVYYCAADIPQTDGYWGQGTQVTVSS	low polyreactivity
QVQLVESGGGLVQAGGSLRLSCAACGRTFVDYVMGSYRQAPGKERELVAAISRSGSTYYADSVKGRFTISRDNAKNTVYLQRNSLKPEDTAVYYCAASSVALPWYASWYVYGYEYCGQGTQVTVSS	low polyreactivity
QVQLVESGGGLVQAGGSLRLSCAACGRTFVSYSMGWYRQAPGKERELVAAISRSGGRTYYADSVKGRFTISRDNAKNTVYLQMNSLKPEDTAVYYCATIQYGTLARYDYWGQGTQVTVSS	high polyreactivity
QVQLVESGGGLVQAGGSLRLSCAACGRTFYFYTMGWYRQAPGKERELVAAITRSGVSTYYADSVKGRFTISRDNAKNTVYLQMNSLKPEDTAVYYCAVRTWGYTQYYYWGQGTQVTVSS	high polyreactivity
QVQLVESGGGLVQAGGSLRLSCAACGRTLRTYGMGWYRQAPGKERELVATITRRGDSTYYADSVKGRFTISRDNAKNTVYLQMNSLKPEDTAVYYSNTASYGRHQFRKSSKMDYWGQGTQVTVSS	high polyreactivity
QVQLVESGGGLVQAGGSLRLSCAACGSIFDRYVMGWYRQAPGKERELVAAISSSGGSTYYADSVKGRFTISRDNAKNTVYLQMNSLKPEDTAVYYCAAKFSYGRYNYWGQGTQVTVSS	high polyreactivity
QVQLVESGGGLVQAGGSLRLSCAACGSIFEFNTMGWYRQAPGKERELVAAISSSGGRTYYADSVKGRFTISRDNAKNSVYLQMNSLKPEDTGVYYCNARRLVHNPDYDYWGQGTQVTVSS	high polyreactivity
QVQLVESGGGLVQAGGSLRLSCAACGSIFNYYTMGWYRTAPGKERELVADISWSGGSTYYADSVKGRFTISRDNAKNTVYLQMNSLKPEETAVYYCAADFGLFPYVGTGYYYWGQGTQVTVSS	low polyreactivity
QVQLVESGGGLVQAGGSLRLSCAACGSIFVRNTMGWDRQAPGKERELVASIDWSGGITSYADSVKGRFTISRDNAKNTVYLQMNIRKPEDTAVYFCNAVFLYPFNVPTMEYWGQGTQVTVSS	low polyreactivity
QVQLVESGGGLVQAGGSLRLSCAACGSIFYGNAMGWDRQAPGKVRELVAAITQGATSTYYADSVKGRFTISRDNAKNTVDLQMNSLKPEDTAVYYCAAVLAWRYTYYYWGQGTQVTVSS	high polyreactivity
QVQLVESGGGLVQAGGSLRLSCAACGSIVRDYAMGWYRQAPGKERELVAAIRQSGGRTYYADSVKGRFTISRDNAKNTVYLQMNSLKPDDTAVYYCIARRANYWKKASTQYYYWGQGTQVTVSS	high polyreactivity
QVQLVESGGGLVQAGGSLRLSCAACGSTFFPYAMGWYRQAPGKERELVAAITSGGRTKYADSVKGRFTISRDNAKNTVYLQMNSLKPEDTAVYYCAARGLIKEYGGPYRRFGYWGQGTQVTVSS	high polyreactivity
QVQLVESGGGLVQAGGSLRLSCAACGSTFYAYAMGWYRQAPGKERELVAAIDSGGSTYYADSVKGRFTISRYNAKNTVYLEMNSLKPEDTAVYYCAVRHRYTRAYRGRDYWGQGTQVTVSS	low polyreactivity
QVQLVESGGGLVQAGGSLRLSCAAFPYAMGWYIPAPAKERELVAAISSSGTSTYYADSVKGRFTISRDNAKNTVYLQMNSLKPEDTAVYYCNTALSRLSQHDYWGQGTQVTVSS	low polyreactivity
QVQLVESGGGLVQAGGSLRLSCAAPGSTFGRYAMGWYRQAPGKERELVAAISKSGGSTYYADSVKGRFTISRDNAKNTVYLQMNSLKPEDTAVYYCAATTTRYSYEYWGQGTQVTVSS	low polyreactivity
QVQLVESGGGLVQAGGSLRLSCAAPGSTLSYYAMGWYRQATGKERELVAAISLSVGSTYYADSVKGRFTISRDNAKNTVYLQMNSLKPEDTAVYYCAADDFYSGPFRGDYWGQGTQVTVSS	low polyreactivity
QVQLVESGGGLVQAGGSLRLSCAAPGYIFEFYAMGWYRQAPGKERELVAAISWRGGSTYADSVKGRFTISRDNAKNTVYLQMNSLKPEDTAVYYCNADVEGRYDWTENDYWGQGTQVTVSS	low polyreactivity
QVQLVESGGGLVQAGGSLRLSCAASAFILYRYAMGWYRQAPGKERELVAAISRTGGSTYYADSVKGRFTISRDNAKNTVYLQMNSLKPEDTAVYYCNARSSYGLSYRQYGYWGQGTQVTVSS	high polyreactivity
QVQLVESGGGLVQAGGSLRLSCAASAITFYDYPMGWYRQAPGKERELVAAITWNGGDTYYADSVKGRFTISRDNAKNTDYLQMNSLKPEDTAVYYCNATRHYFGGFHYEYYYWGQGTQVTVSS	low polyreactivity
QVQLVESGGGLVQAGGSLRLSCAASARIFGWNAMGWYRQAPGKERELVAAISWRGGSTYYADSVKGRFTISRDNAKNTVYLQMNSLKPEDTAVYYCNALYTRYVSQWFGYWGQGTQVTVSS	high polyreactivity
QVQLVESGGGLVQAGGSLRLSCAASASIFRSYAMGWYRQAPGKERELVAAISWRGDSTYYADSVKGRFTISRDNAKHTVYLQMNSLKPEDTAVYYCNVQRSLRMDYWGQGTQGTVSS	high polyreactivity
